Data on 4 molecules can be found in patent US10398760B2, “Method of treating pain using agents that promote neuronal differentiation” (priority 2016, dated 2019).

The subject of assay [1] is rats subjected to chronic constriction injury of the sciatic nerve (CCI) or Sham surgery. Briefly: Mechanical nociceptive sensitivity (von Frey filaments) in CCI and Sham rats. It is filed as in vivo, rat.
Assay [2] has the same test system. Description: Thermal nociceptive sensitivity (Hargreaves method, radiant heat withdrawal latency) in CCI and Sham rats. Type of assay: in vivo, rat.
Assay [3] relates to Mash1, DCX and Notch3 expression in spinal cord gray matter. Briefly: Immunofluorescence quantification of immature neuron markers in spinal cord gray matter. Type of assay: in vivo, rat. The settings on record: vs CCI+Veh.
Assay [4] concerns human with chronic pain as a result of injury. Briefly: Use of Dihexa to treat chronic pain in a human (numeric rating scale, dolorimetric). It is filed as in vivo. The note with it: oral; for pain reported by the subject: 200 miligrams/day. How it is done: Dihexa (N-hexanoic-Tyr-Ile-(6)aminohexanoic amide), an activator of c-Met receptor, is administered orally, 200 miligrams/day for 4 weeks, to a human for the purpose of treating pain. The subject is having chronic pain for the previous 6 months, as a result of injury. Before the beginning of treatment, and weekly thereafter for 6 months, the subject is tested for pain levels using a combination of subjective (numeric rating scale) and physiological (dolorimetric) evaluation methods.

The test system of assay [5] is human patient diagnosed with fibromyalgia. Briefly: Use of NT4 to treat pain in a human patient diagnosed with fibromyalgia. Type of assay: in vivo. The settings on record: for pain reported by the patient: injected into the spinal canal every other day for 3 weeks. Here is the method:
NT4 is a TrkB ligand and inducer of neuronal differentiation that may be used to treat pain. NT4 (200 microliters, 1 microgram/ml) is injected every other day for 3 weeks (10 injections total) into the spinal canal of a human patient diagnosed with fibromyalgia. […] To prevent pain reoccurrence, a maintenance dose of 7,8-dihydroxy-4′-dimethylaminoflavone-8-O-glucozide (3-4 grams per day for 4-5 consecutive days) may be administered every month.

[6] abbreviates: intraperitoneal DHF treatment delayed for 3 weeks after CCI.
The mark [7] stands for this setting: intrathecal BDNF treatment delayed for 3 weeks after CCI.
Where [8] appears, read: intrathecal injection every other day for first 3 weeks after CCI/Sham surgery, tested weekly, vs vehicle.

“Also recorded” adds a separate entry of the source.

As for `O=c1cc(-c2ccccc2)oc2c(O)c(O)ccc12` [DHF, 7,8-dihydroxyflavone, reference compound], the “duration of the decrease in pain” value in assay [1] (DHF intraperitoneal treatment applied for only 3 weeks) was determined as 3 months. Besides, the “long-term mechanical pain sensitivity” value in assay [1] (setting [6]) was “extended long-term decrease in mechanical and thermal pain susceptibility; also recorded: long-term decrease in pain sensitivity”. For the same molecule, the “mechanical pain sensitivity / mechanical pain threshold” value in assay [1] (intraperitoneal injection every other day for 3 weeks immediately after CCI/Sham surgery, vs vehicle) is “reduces long-term mechanical pain susceptibility; also recorded: long-term increase in mechanical pain threshold (decrease in pain sensitivity)”. The “long-term thermal pain sensitivity” value in assay [2] (setting [6]) was “extended long-term decrease in mechanical and thermal pain susceptibility; also recorded: long-term decrease in pain sensitivity”. The “expression of immature neuron markers Mash1, DCX and Notch3” value in assay [3] (intraperitoneal injection every other day for 3 weeks after CCI, spinal cords taken after 4 weeks) is “reduces the expression of Mash1, DCX and Notch3; also recorded: reducing the expression of all three markers”.
For the molecule “N-hexanoic-Tyr-Ile-(6)aminohexanoic amide [Dihexa]”, the “time until increased pain sensitivity may reoccur” value in assay [4] (200 miligrams/day for 4 weeks) turned out to be 3 months. For the same molecule, the “pain reported by the subject” value in assay [4] (after 2 weeks of treatment) is recorded as “decreased pain”; in assay [4] (after 4 weeks of treatment), “pain sensitivity is back to normal levels”.

B1: NT4: neurotrophin 4, a TrkB ligand and inducer of neuronal differentiation (protein)
chain: GVSETAPASRRGELAVCDAVSGWVTDRRTAVDLRGREVEVLGEVPAAGGSPLRQYFFETRCKADNAEEGGPGAGGGGCRGVDRRHWVSECKAKQSYVRALTADAQGRVGWRWIRIDTACVCTLLSRTGRA
Turning to B1, the “pain reported by the patient” value was “decreased pain” in assay [5] (after 2 weeks), “no pain” in assay [5] (after 3-4 weeks) and “increased pain” in assay [5] (after 4-5 days). The “time after which the increase in pain subsides” value in assay [5] (injected into the spinal canal every other day, with continued treatment) lay in the range of 7 to 10 days.

B2: BDNF: brain-derived neurotrophic factor, TrkB ligand and promoter of neuronal differentiation, injected intrathecally (protein)
chain: HSDPARRGELSVCDSISEWVTAADKKTAVDMSGGTVTVLEKVPVSKGQLKQYFYETKCNPMGYTKEGCRGIDKRHWNSQCRTTQSYVRALTMDSKKRIGWRFIRIDTSCVCTLTIKRGR
Turning to B2, the “duration of the decrease in pain” value in assay [1] (BDNF intrathecal treatment applied for only 3 weeks) was determined as 3 months. For the same molecule, in assay [1] (setting [7]), the “long-term mechanical pain sensitivity” value is “long-term reduction in pain and pain susceptibility; also recorded: long-term decrease in pain sensitivity”. In addition, the “mechanical nociceptive (pain) sensitivity / mechanical pain threshold” value in assay [1] (setting [8]) is given as “reduction in mechanical pain susceptibility (increased pain threshold); also recorded: long-term increase in mechanical pain threshold (decrease in pain sensitivity)”. Besides, in assay [2] (setting [7]), the “initial short-term increase in thermal pain sensitivity (duration)” value lay in the range of 2 to 3 days and the “long-term thermal pain sensitivity” value was “reduced thermal pain susceptibility; also recorded: long-term decrease in pain sensitivity”. Also, the “thermal nociceptive (pain) sensitivity” value in assay [2] (setting [8]) is “may increase long-term sensitivity to thermal pain; also recorded: increased long-term thermal pain sensitivity”. For the same molecule, in assay [3] (intrathecal injection every other day for 3 weeks after CCI, spinal cords taken at week 4), the “expression of immature neuron markers Mash1, DCX and Notch3” value is “reduction in the expression of Mash1, DCX and Notch3; also recorded: reducing the expression of all three markers”.
